Assay results: article PMC11558822, “Myc 9aaTAD activation domain binds to mediator of transcription with superior high affinity” (Molecular Medicine, 2024)

Test system: lacZ reporter driven by the lexA operator
Assay: One hybrid transactivation (β-galactosidase reporter) assay with LexA hybrids in yeast strain L40
Type: cell-based, Saccharomyces cerevisiae
Conditions: for ß-Gal: raw β-galactosidase activity; for Reporter activation (average value in %): β-galactosidase activity of LexA hybrid, % of positive control p53 construct 6p53 set to 100%, mean ± SD, n = 3; for normalized value in %: β-galactosidase, % of 6p53 mean
[1] = replicate 1 (first sample of the construct)
[2] = replicate 2 (second sample of the construct)
[3] = replicate 3 (third sample of the construct)

B1: c-Myc region 1-103: LexA hybrid construct of c-Myc N-terminal region 1–103 without 9aaTAD (protein, UniProt P01106 1-103, looked up, fragment)
chain: MDFFRVVENQQPPATMPLNVSFTNRNYDLDYDSVQPYFYCDEEENFYQQQQQSELQPPAPSEDIWKKFELLPTPPLSPSRRSGLCSPSYVAVTPFSLRGDNDG
modifications: LexA fusion
notes: LexA hybrid construct of c-Myc N-terminal region 1–103 without 9aaTAD
ß-Gal [1]: 25 | ß-Gal [2]: 24 | ß-Gal [3]: 27 | Reporter activation (average value in %): 9% | normalized value in % [1]: 9% | normalized value in % [2]: 9% | normalized value in % [3]: 10%

B2: c-Myc region 1-108: LexA hybrid construct of c-Myc N-terminal region 1–108 with 9aaTAD (protein, UniProt P01106 1-108, looked up, fragment)
chain: MDFFRVVENQQPPATMPLNVSFTNRNYDLDYDSVQPYFYCDEEENFYQQQQQSELQPPAPSEDIWKKFELLPTPPLSPSRRSGLCSPSYVAVTPFSLRGDNDGGGGSF
modifications: LexA fusion
notes: LexA hybrid construct of c-Myc N-terminal region 1–108 with 9aaTAD
activation function (times) (one hybrid assay, presence versus absence of 9aaTAD (region 100–108) in the construct): 5 times | ß-Gal [1]: 136 | ß-Gal [2]: 123 | ß-Gal [3]: 139 | Reporter activation (average value in %): 49% | normalized value in % [1]: 50% | normalized value in % [2]: 45% | normalized value in % [3]: 51%
